We go through 5 molecules from US10947523B2, “Biotechnological production of L-tryptophan” (Technische Universitaet Hamburg, priority 2017, dated 2021).

For one data set, the target named is T1, 6His-eIGPs (Escherichia coli, UniProt P00909).
T1 construct: made in house; host or cells: E. coli Top10
Put plainly: IGPs enzyme assay, inhibition by anthranilate. The format is biochemical. To be noted: isolated IGPs domain, N-terminal His-tag.

Another data set concerns the target T2, 6His-TrpC (Escherichia coli, UniProt P00909).
T2 construct: inserting the PCR products amplified from E. coli S028 with primers EcoRI-6H-trpC and trpC-XbaI; made in house; host or cells: E. coli Top10
Put plainly: IGPs enzyme assay, inhibition by anthranilate. The format is biochemical.

In the next data set the target is T3, eIGPs mutant S60G (Escherichia coli, UniProt P00909, S61G).
T3 construct: made in house; host or cells: E. coli BL21
The experiment in a line: IGPs enzyme assay, inhibition by anthranilate. As to conditions: read-out: activity of mutant S60G inhibited. The format is biochemical. How it is done:
(§1) The activity of IGPs from E. coli was measured by monitoring the formation of IGP via absorbance at 278 nm with a molar extinction coefficient value of 5500 M^−1 cm^−1 [24]. Assays were performed in 50 mM HEPPS pH 7.5, 4 mM EDTA at 30° C. with 20-25 μg/mL of purified enzymes in cuvettes. To investigate the effect of anthranilate on the activity of IGPs, the activities were measured in the presence of different concentrations of anthranilate. Unless stated otherwise, the reactions were started by adding 180 μM of the substrate CdRP. The synthesis of CdRP was performed by following the improved method reported by Kirschner et al.. The concentration of the synthesized CdRP in the stock solution was determined by measuring the concentrations of the product IGP with completely converted reactions.
(§2) […]. Therefore, the effect of anthranilate on the activity of this mutants was not investigated. […] […].

For another data set, the target named is T4, eIGPs mutant S60A (Escherichia coli, UniProt P00909, S61A).
T4 construct: made in house; host or cells: E. coli BL21
Put plainly: IGPs enzyme assay, inhibition by anthranilate. The format is biochemical. The protocol:
as §1, §2

The target in another data set is T5, ScTrpC (Saccharomyces cerevisiae, UniProt P00937).
T5 sequence (P00937 1-484): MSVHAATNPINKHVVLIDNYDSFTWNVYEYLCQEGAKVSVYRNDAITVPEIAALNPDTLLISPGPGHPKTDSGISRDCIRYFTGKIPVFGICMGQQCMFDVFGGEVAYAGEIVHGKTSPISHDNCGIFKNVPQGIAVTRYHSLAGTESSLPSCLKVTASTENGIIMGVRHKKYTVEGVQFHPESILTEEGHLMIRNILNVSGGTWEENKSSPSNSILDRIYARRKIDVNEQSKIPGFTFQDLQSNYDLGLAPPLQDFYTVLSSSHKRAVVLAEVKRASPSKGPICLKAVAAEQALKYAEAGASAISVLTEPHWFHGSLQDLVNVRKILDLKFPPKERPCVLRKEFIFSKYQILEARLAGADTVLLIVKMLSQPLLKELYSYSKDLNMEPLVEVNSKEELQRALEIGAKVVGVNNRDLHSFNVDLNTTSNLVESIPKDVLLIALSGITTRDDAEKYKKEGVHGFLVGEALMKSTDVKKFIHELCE
Put plainly: Effect of anthranilate on IGPs activity of TrpC. Format: biochemical. As to conditions: FIG. 7.

Another data set addresses AgTrpC (Aspergillus niger, UniProt P05328). The experiment in a line: Effect of anthranilate on IGPs activity of TrpC. Format: biochemical. To be noted: FIG. 7.
Data set [1] addresses T6, ScIGPs (ScTrpC without anthranilate synthase II domain) (Saccharomyces cerevisiae, UniProt P00937).
T6 construct: ScIGPs=ScTrpC without anthranilate synthase II domain
T6 sequence (P00937 215-484 limits assumed): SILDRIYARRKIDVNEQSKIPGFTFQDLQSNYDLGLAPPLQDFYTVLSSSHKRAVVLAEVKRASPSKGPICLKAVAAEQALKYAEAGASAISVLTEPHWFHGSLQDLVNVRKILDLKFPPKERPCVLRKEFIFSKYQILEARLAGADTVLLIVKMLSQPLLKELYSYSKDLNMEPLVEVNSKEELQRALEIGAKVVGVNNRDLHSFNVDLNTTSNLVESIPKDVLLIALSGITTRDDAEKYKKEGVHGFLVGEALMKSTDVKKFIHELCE
The experiment in a line: Effect of anthranilate on IGPs activity. Format: biochemical. As to conditions: anthranilate synthase II domain removed, FIG. 8. The source says: FIG. 8. Effects of anthranilate on the activities of ScTrpC and ScIGPs (ScIGPs=ScTrpC without anthranilate synthase II domain).

The target of the next data set is T7, eIGPs-6His (Escherichia coli, UniProt P00909).
T7 construct: made in house; host or cells: E. coli BL21
The experiment in a line: IGPs enzyme assay, inhibition by anthranilate. Format: biochemical. The protocol:
as §1
To elucidate the effect of anthranilate on the enzyme activity of eIGPs, the catalytic activity of the isolated eIGPs (eIGPs-6His) was examined in the presence of different concentrations of anthranilate. […] The inhibition constant (IC50, 50% inhibitory concentration) of eIGPs-6His was measured to be about 0.70 mM.

Data set [2] can be described thus: Specific activities and kinetic constants of TrpC WT and TrpC QVFQ. The format is biochemical, Escherichia coli. How it is done: as §1
Data set [3] in a line: Enzyme assay of wild-type and mutant eIGPs (specific activity). As to conditions: for anthranilate resistance / sensitivity compared with wild-type eIGPs (in words): FIG. 3. Format: biochemical, Escherichia coli. The protocol:
as §1, §2

Data set [4] is described as follows: Michaelis constants of 6His-TrpC without and with anthranilate. Format: biochemical, Escherichia coli. The protocol:
as §1
To identify the mechanism of the inhibition of eIGPs by anthranilate, the effect of the inhibitor on the Michaelis constants of eIGPs was investigated with 6His-TrpC. Various concentration of CdRP (from 2.6 to 260 μM) were used when the reactions carried out in the absence of anthranilate and in the presence of 0.5 mM anthranilate, respectively. […] It is somewhat consistent with the fact that anthranilate has a distinguished binding site from the catalytic site based on the crystal structure analysis.

T4 sequence (P00909 2-260 S61A): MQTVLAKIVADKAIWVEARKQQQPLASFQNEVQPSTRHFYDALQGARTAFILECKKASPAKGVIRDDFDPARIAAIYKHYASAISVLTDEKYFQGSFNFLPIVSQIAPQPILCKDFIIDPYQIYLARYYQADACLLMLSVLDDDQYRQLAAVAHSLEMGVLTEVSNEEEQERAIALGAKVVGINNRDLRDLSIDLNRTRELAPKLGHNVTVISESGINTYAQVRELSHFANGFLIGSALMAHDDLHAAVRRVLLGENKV
AgTrpC, sequence (P05328 other isoform, or with tags, fused parts or gaps with the stated changes): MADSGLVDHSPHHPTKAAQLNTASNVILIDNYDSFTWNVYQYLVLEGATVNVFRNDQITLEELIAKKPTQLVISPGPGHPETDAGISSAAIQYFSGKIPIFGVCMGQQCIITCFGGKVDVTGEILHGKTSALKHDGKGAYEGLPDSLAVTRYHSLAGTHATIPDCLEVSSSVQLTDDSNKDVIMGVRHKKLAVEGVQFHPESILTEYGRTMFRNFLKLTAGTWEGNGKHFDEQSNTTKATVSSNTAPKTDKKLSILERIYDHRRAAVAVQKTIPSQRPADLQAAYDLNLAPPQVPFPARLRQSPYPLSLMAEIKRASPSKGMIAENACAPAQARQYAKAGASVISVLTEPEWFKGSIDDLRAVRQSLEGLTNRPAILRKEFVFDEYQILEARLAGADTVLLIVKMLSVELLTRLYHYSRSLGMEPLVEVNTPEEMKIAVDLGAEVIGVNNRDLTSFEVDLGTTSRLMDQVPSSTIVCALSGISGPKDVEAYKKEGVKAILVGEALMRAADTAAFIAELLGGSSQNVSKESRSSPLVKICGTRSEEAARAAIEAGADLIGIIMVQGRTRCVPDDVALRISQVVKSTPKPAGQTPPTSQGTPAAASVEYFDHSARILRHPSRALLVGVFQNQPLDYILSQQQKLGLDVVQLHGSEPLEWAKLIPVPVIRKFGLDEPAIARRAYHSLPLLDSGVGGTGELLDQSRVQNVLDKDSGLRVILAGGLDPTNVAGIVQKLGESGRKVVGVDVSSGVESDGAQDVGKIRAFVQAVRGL
Experimental for 6His-eIGPs: The activity of IGPs from E. coli was measured by monitoring the formation of IGP via absorbance at 278 nm [23] with a molar extinction coefficient value of 5500 M^−1 cm^−1 [24]. Assays were performed in 50 mM HEPPS pH 7.5, 4 mM EDTA at 30° C. with 20-25 μg/mL of purified enzymes in cuvettes. To investigate the effect of anthranilate on the activity of IGPs, the activities were measured in the presence of different concentrations of anthranilate. Unless stated otherwise, the reactions were started by adding 180 μM of the substrate CdRP. […] The concentration of the synthesized CdRP in the stock solution was determined by measuring the concentrations of the product IGP with completely converted reactions.

Consider `Nc1ccccc1C(=O)O` [anthranilate, 2-Aminobenzoic acid], for which the IC50 is around 400 µM on 6His-eIGPs; around 1300 µM against 6His-TrpC (eIGPs-PRAi two-domain form); around 2000 µM at eIGPs mutant S60A; around 700 µM on eIGPs-6His (180 μM CdRP, 30° C., pH 7.5, read-out: inhibition constant (IC50, 50% inhibitory concentration) of eIGPs-6His). Also, the mechanism of inhibition entry at 6His-TrpC (Lineweaver-Burk, CdRP 2.6 to 260 μM, 0 vs 0.5 mM anthranilate) is recorded as “noncompetitive inhibitor”. The inhibition at 2000 µM on eIGPs mutant S60G is 20%; on eIGPs mutant S60A (read-out: activity of mutant S60A inhibited), 46%. Further, the “regulation of ScTrpC activity by anthranilate” value on ScTrpC is recorded as “activated”. In addition, at AgTrpC, the “regulation of AgTrpC activity by anthranilate” value is recorded as “activated”. For the same molecule, the “regulation of ScIGPs activity by anthranilate” value in data set [1] was “no activation was observed”. For the same molecule, the inhibition at 500 µM at eIGPs-6His (0.5 mM anthranilate, read-out: activity of eIGPs inhibited) was determined as 46%.

B1: QVFQ: E. coli TrpC variant S58Q, P59V, S60F, K61Q, SEQ ID NO: 30 (protein)
chain: MQTVLAKIVADKAIWVEARKQQQPLASFQNEVQPSTRHFYDALQGARTAFILECKKAQVFQGVIRDDFDPARIAAIYKHYASAISVLTDEKYFQGSFNFLPIVSQIAPQPILCKDFIIDPYQIYLARYYQADACLLMLSVLDDDQYRQLAAVAHSLEMGVLTEVSNEEEQERAIALGAKVVGINNRDLRDLSIDLNRTRELAPKLGHNVTVISESGINTYAQVRELSHFANGFLIGSALMAHDDLHAAVRRVLLGENKVCGLTRGQDAKAAYDAGAIYGGLIFVATSPRCVNVEQAQEVMAAAPLQYVGVFRNHDIADVVDKAKVLSLAAVQLHGNEEQLYIDTLREALPAHVAIWKALSVGETLPAREFQHVDKYVLDNGQGGSGQRFDWSLLNGQSLGNVLLAGGLGADNCVEAAQTGCAGLDFNSAVESQPGIKDARLLASVFQTLRAY
modifications: EcTrpC S58Q P59V S60F K61Q
Regarding B1, the Specific activities stood at 1.886 ± 0.067 µmol/min/mg in [2] (Anthranilate 0 mM); 1.124 ± 0.074 µmol/min/mg in data set [2] (Anthranilate 0.5 mM); 1.152 ± 0.089 µmol/min/mg in data set [2] (Anthranilate 1 mM); 0.906 ± 0.022 µmol/min/mg in data set [2] (Anthranilate 2 mM); 0.866 ± 0.016 µmol/min/mg in data set [2] (Anthranilate 3 mM). In addition, in data set [2] (apparent, substrate CdRP), the Km (as a rule, the concentration of substrate that gives half-maximal velocity) was determined as 6.14 ± 0.04 µM. In data set [2] (apparent, substrate CdRP), the kcat (commonly the maximal rate divided by the concentration of active sites) came out at 0.027 ± 0.001 s⁻¹. Besides, the “inhibition by anthranilate compared to wildtype TrpC (in words)” value in data set [2] (increasing anthranilate concentrations, FIG. 12) is “significantly less inhibited by anthranilate”.

B2: L188F (protein)
chain: MQTVLAKIVADKAIWVEARKQQQPLASFQNEVQPSTRHFYDALQGARTAFILECKKASPSKGVIRDDFDPARIAAIYKHYASAISVLTDEKYFQGSFNFLPIVSQIAPQPILCKDFIIDPYQIYLARYYQADACLLMLSVLDDDQYRQLAAVAHSLEMGVLTEVSNEEEQERAIALGAKVVGINNRDFRDLSIDLNRTRELAPKLGHNVTVISESGINTYAQVRELSHFANGFLIGSALMAHDDLHAAVRRVLLGENKVCGLTRGQDAKAAYDAGAIYGGLIFVATSPRCVNVEQAQEVMAAAPLQYVGVFRNHDIADVVDKAKVLSLAAVQLHGNEEQLYIDTLREALPAHVAIWKALSVGETLPAREFQHVDKYVLDNGQGGSGQRFDWSLLNGQSLGNVLLAGGLGADNCVEAAQTGCAGLDFNSAVESQPGIKDARLLASVFQTLRAY
modifications: EcTrpC L188F
Regarding B2, the “Specific activity in the absence of anthranilate” value in data set [3] (CdRP 180 μM) was 1.04 ± 0.02 µmol/min/mg. Further, the “anthranilate resistance / sensitivity compared with wild-type eIGPs (in words)” value in data set [3] was “slightly increased”.

B3: S60G (protein)
chain: MQTVLAKIVADKAIWVEARKQQQPLASFQNEVQPSTRHFYDALQGARTAFILECKKASPGKGVIRDDFDPARIAAIYKHYASAISVLTDEKYFQGSFNFLPIVSQIAPQPILCKDFIIDPYQIYLARYYQADACLLMLSVLDDDQYRQLAAVAHSLEMGVLTEVSNEEEQERAIALGAKVVGINNRDLRDLSIDLNRTRELAPKLGHNVTVISESGINTYAQVRELSHFANGFLIGSALMAHDDLHAAVRRVLLGENKVCGLTRGQDAKAAYDAGAIYGGLIFVATSPRCVNVEQAQEVMAAAPLQYVGVFRNHDIADVVDKAKVLSLAAVQLHGNEEQLYIDTLREALPAHVAIWKALSVGETLPAREFQHVDKYVLDNGQGGSGQRFDWSLLNGQSLGNVLLAGGLGADNCVEAAQTGCAGLDFNSAVESQPGIKDARLLASVFQTLRAY
modifications: EcTrpC S60G
On to B3, for which the “activity relative to the wild-type enzyme” value in [3] (18 μM CdRP, absence of anthranilate) is on record as 52%. For the same molecule, the figures for the “Specific activity in the absence of anthranilate” value in [3] (CdRP 18 μM), in data set [3] (CdRP 60 μM) and in data set [3] (CdRP 180 μM) were 1.13 ± 0.02 µmol/min/mg, 1.75 ± 0.03 µmol/min/mg and 1.92 ± 0.02 µmol/min/mg, respectively. The “anthranilate resistance / sensitivity compared with wild-type eIGPs (in words)” value in data set [3] is “significantly improved”. Moreover, the “Km ranking among WT, S60A, S60G” value in [3] (from rates of increased absorbance) was “largest Km”. The “specific activity compared with wild type in the presence of anthranilate” value in data set [3] (more than 0.1 mM anthranilate, 180 μM CdRP) is recorded as “higher than that of the wild type”.

B4: 6His-TrpC: E. coli TrpC, two-domain form, 6His-tag at the N-terminus (protein, UniProt P00909 1-453, looked up)
Tryptophan biosynthesis …: MMQTVLAKIVADKAIWVEARKQQQPLASFQNEVQPSTRHFYDALQGARTAFILECKKASPSKGVIRDDFDPARIAAIYKHYASAISVLTDEKYFQGSFNFLPIVSQIAPQPILCKDFIIDPYQIYLARYYQADACLLMLSVLDDDQYRQLAAVAHSLEMGVLTEVSNEEEQERAIALGAKVVGINNRDLRDLSIDLNRTRELAPKLGHNVTVISESGINTYAQVRELSHFANGFLIGSALMAHDDLHAAVRRVLLGENKVCGLTRGQDAKAAYDAGAIYGGLIFVATSPRCVNVEQAQEVMAAAPLQYVGVFRNHDIADVVDKAKVLSLAAVQLHGNEEQLYIDTLREALPAHVAIWKALSVGETLPAREFQHVDKYVLDNGQGGSGQRFDWSLLNGQSLGNVLLAGGLGADNCVEAAQTGCAGLDFNSAVESQPGIKDARLLASVFQTLRAY
modifications: N-terminal His6 tag
notes: E. coli TrpC, two-domain form, 6His-tag at the N-terminus
For B4, in data set [4] (0.5 mM anthranilate), the Km is 1.53 µM and the Vmax (in general, the rate approached at saturating substrate) worked out at 2.63 µmol/min/mg. In addition, in [4] (no anthranilate), the Km is 1.57 µM and the Vmax stood at 3.64 µmol/min/mg.
